The source of these data is paper PMC8972186.

Experiment [1] addresses dynamic microtubules grown from purified bovine brain tubulin (bovine) (UniProt Q6B856). The experiment in a line: optical trap force clamp assay.
Experiment [2] has the same target. The experiment can be described thus: optical trap rupture force assay.

Turning to “wild-type Ndc80 complex (from UniProt P40460 1-691; P33895 1-451; Q04477 1-213; P40014 1-221)”, the percent of beads tracking with shortening microtubule tips under 1.5 pN in experiment [1] came out at 7%. The median rupture strength in experiment [2] was 3.2 pN.
